The values that follow come from PMC3222833 (Journal of medicinal chemistry, 2011).

By Km is commonly meant the concentration of substrate that gives half-maximal velocity. A word on the kcat: it is the maximal rate divided by the concentration of active sites. In general, kcat/Km refers to the second-order rate constant that governs catalysis at low substrate concentration.

The target in data set [1] is rhGCPII(K699S) mutant (Homo sapiens, UniProt Q04609, K699S). The data set is described as follows: Saturation kinetics of substrate hydrolysis by mutated GCPII. The conditions noted are these: kinetic assay. Type of data set: biochemical.
rhGCPII(K699S) mutant, sequence (Q04609 44-750 K699S): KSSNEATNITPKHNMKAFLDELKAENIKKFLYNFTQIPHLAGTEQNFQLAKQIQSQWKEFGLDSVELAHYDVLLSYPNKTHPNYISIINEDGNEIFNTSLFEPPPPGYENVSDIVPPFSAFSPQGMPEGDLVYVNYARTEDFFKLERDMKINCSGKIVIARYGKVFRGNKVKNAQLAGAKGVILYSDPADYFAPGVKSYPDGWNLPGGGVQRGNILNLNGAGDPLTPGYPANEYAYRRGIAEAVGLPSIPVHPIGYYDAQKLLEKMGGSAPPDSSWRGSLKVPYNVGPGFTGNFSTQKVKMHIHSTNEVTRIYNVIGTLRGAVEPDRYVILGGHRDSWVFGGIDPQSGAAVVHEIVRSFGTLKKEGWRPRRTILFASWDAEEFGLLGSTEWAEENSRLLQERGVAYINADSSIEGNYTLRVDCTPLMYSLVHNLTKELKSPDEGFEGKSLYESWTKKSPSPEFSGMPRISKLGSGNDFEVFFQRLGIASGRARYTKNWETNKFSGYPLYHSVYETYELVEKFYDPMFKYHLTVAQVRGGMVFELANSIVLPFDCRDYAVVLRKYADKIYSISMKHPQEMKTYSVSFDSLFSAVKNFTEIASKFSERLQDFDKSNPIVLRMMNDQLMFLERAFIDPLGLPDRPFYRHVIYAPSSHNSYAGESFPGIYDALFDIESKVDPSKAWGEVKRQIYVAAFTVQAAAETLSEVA
Data set [2] addresses T1, recombinant human GCPII (rhGCPII) (Homo sapiens, UniProt Q04609). The data set is described as follows: Saturation kinetics of dipeptide hydrolysis by wild-type rhGCPII. Type of data set: biochemical. The conditions noted are these: ratio of catalytic efficiency.
Data set [3] relates to rhGCPII. Particulars: WT rhGCPII, radioenzymatic assay with 3H-NAAG; cited from earlier work.
Data set [4] has as its target T1, recombinant human GCPII (rhGCPII). Particulars: cited from earlier work.
The subject of data set [5] is CCCCCCC(NC(=O)[C@H](CC(=O)O)NC(C)=O)C(=O)O. In words: Saturation kinetics of dipeptide hydrolysis by wild-type rhGCPII. Type of data set: biochemical, human. Particulars: other: wild-type rhGCPII, Table 1; 37.0 °C.
The subject of data set [6] is CCCCCC(NC(=O)[C@H](CC(=O)O)NC(C)=O)C(=O)O. Described as above. Type of data set: biochemical, human. The conditions noted are these: other: wild-type rhGCPII, Table 1; 37.0 °C.
The test system of data set [7] is CCCC[C@H](NC(=O)[C@H](CC(=O)O)NC(C)=O)C(=O)O. The description is as above. Type of data set: biochemical, human. The conditions noted are these: other: wild-type rhGCPII, Table 1; 37.0 °C.
In data set [8] the test system is CC(=O)N[C@@H](CC(=O)O)C(=O)N[C@@H](C)C(=O)O. The data set is described as above. Type of data set: biochemical, human. Particulars: other: wild-type rhGCPII, Table 1; 37.0 °C.
Data set [9] concerns CSCC[C@H](NC(=O)[C@H](CC(=O)O)NC(C)=O)C(=O)O. The data set is described as above. The data set is classed as biochemical, human. Particulars: other: wild-type GCPII, Table 2; 37.0 °C.
For data set [10], the system named is CCC[C@H](NC(=O)[C@H](CC(=O)O)NC(C)=O)C(=O)O. The description is as above. The data set is classed as biochemical, human. The conditions noted are these: other: wild-type rhGCPII, Table 1; 37.0 °C.
Data set [11] deals with CCCCCCCC(NC(=O)[C@H](CC(=O)O)NC(C)=O)C(=O)O. The description is as above. The conditions noted are these: 37.0 °C. The data set is classed as biochemical, human.
Data set [12] relates to CC[C@H](NC(=O)[C@H](CC(=O)O)NC(C)=O)C(=O)O. Described as above. Type of data set: biochemical, human. The conditions noted are these: other: wild-type rhGCPII, Table 1; 37.0 °C.
Setting [13] is: other: wild-type GCPII, Table 2.
The mark [14] stands for this setting: other: wild-type rhGCPII, Table 1.

“And” between values parts separate entries of the source, which are not always exact repeats. Equal entries are not always repeated. Residues, ends and D or L forms follow the SMILES beside them.

T1 sequence (Q04609 44-750): as the sequence (Q04609 44-750 K699S) above, with S656K counted along it

For the molecule `CCCCCCCC(NC(=O)[C@H](CC(=O)O)NC(C)=O)C(=O)O` (some centres unmarked) [8S, Ac-Asp-Ano], the “stronger binding to K699S mutant compared to wild-type GCPII” value in [1] was “approximately 3 fold”. Also, the “efficiency of rhGCPII hydrolysis compared to Ac-Asp-Ala” value in data set [2] was “approximately 20 fold”.
On to `CC(=O)N[C@@H](CC(=O)O)C(=O)N[C@@H](CCC(=O)O)C(=O)O` [NAAG, N-acetyl-aspartyl-glutamate] (Ac-Asp-Glu-OH), for which, in [3], the Michaelis constant (Km) is 1.2 ± 0.5 µM; the kcat is 1.1 ± 0.2 ^# s^-1 and 1.1 ± 0.2 ^* s^-1.
`CSCC[C@H](NC(=O)[C@H](CC(=O)O)NC(C)=O)C(=O)O` [NAAM, N-acetyl-aspartyl-methionine] (Ac-Asp-Met-OH): the Michaelis-Menten constant (Km) in data set [4] is 24.8 ± 2.9 µM.
In the case of “recombinant human GCPII (rhGCPII) (Homo sapiens)”, the Km in data set [5] came to 8 ± 2 µM; in [6], 12 ± 1 µM; in data set [7], 19 ± 4 µM; in data set [8], 85 ± 21 µM; in data set [9], 7.5 ± 1.6 µM; in data set [10] it was 31 ± 12 µM. Further, the Km came to 10.4 ± 2.5 µM in [11] (setting [13]), 10 ± 2 µM in [11] (setting [14]) and 29 ± 8 µM in [12]. Further, the kcat in [5] was 0.6 ± 0.03 s⁻¹; in data set [6] it was 0.44 ± 0.04 s⁻¹; in data set [7], 0.24 ± 0.01 s⁻¹; in data set [8] it was 0.23 ± 0.05 s⁻¹; in [9], 0.32 ± 0.07 s⁻¹; in [10], 0.42 ± 0.05 s⁻¹. Moreover, the kcat in [11] (setting [13]) is 0.62 ± 0.10 s⁻¹; in data set [11] (setting [14]) it was 0.62 ± 0.1 s⁻¹; in data set [12], 0.25 ± 0.03 s⁻¹. Also, the catalytic efficiency (kcat/Km) in [5] came to 75000 M⁻¹ s⁻¹; in data set [6], 36700 M⁻¹ s⁻¹; in data set [7], 12600 M⁻¹ s⁻¹; in data set [8] it was 2700 M⁻¹ s⁻¹; in data set [9], 42700 M⁻¹ s⁻¹; in data set [10] it was 13500 M⁻¹ s⁻¹. In addition, the kcat/Km was 59600 M⁻¹ s⁻¹ in data set [11] (setting [13]), 62000 M⁻¹ s⁻¹ in data set [11] (setting [14]) and 8600 M⁻¹ s⁻¹ in data set [12].
